Source: publication PMC9596381 (2022)
Read-outs that look alike come from different tables or passages of the source.

B1: Rattus norvegicus Unc5D residues 32-307 (rUnc5D^IgIgTSP) (domain or fragment)
chain: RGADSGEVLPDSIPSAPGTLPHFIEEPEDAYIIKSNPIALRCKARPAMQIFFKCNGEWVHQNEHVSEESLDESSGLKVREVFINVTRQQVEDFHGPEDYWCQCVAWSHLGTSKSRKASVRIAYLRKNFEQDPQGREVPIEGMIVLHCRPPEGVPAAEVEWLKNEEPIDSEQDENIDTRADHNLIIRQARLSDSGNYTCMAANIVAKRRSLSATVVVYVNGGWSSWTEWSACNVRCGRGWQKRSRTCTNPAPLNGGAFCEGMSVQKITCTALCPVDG
modifications: C-mannosylated tryptophans W253 and W256 (TSP1)
B2: mouse Unc5C ectodomain (domain or fragment)
chain: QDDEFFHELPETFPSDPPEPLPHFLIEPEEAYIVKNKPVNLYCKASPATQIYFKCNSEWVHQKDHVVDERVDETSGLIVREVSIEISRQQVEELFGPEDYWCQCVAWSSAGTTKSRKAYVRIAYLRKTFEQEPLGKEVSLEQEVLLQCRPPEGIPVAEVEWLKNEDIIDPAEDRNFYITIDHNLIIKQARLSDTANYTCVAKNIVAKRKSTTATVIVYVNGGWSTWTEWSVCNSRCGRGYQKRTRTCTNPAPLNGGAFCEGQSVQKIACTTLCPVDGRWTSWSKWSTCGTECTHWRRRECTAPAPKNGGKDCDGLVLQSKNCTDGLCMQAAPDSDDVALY
modifications: biotin on the Avi-tag

How the values were obtained:
[1] = target: T1, human glypican-3 core domain, residues 32-483 (hGPC3^core) (human, UniProt P51654 32-483, N-linked glycans at N124 and N241); assay: SPR
[2] = target: T1, human glypican-3 core domain, residues …; assay: SPR; remark: listed apart in the source

T1 sequence (P51654 32-483): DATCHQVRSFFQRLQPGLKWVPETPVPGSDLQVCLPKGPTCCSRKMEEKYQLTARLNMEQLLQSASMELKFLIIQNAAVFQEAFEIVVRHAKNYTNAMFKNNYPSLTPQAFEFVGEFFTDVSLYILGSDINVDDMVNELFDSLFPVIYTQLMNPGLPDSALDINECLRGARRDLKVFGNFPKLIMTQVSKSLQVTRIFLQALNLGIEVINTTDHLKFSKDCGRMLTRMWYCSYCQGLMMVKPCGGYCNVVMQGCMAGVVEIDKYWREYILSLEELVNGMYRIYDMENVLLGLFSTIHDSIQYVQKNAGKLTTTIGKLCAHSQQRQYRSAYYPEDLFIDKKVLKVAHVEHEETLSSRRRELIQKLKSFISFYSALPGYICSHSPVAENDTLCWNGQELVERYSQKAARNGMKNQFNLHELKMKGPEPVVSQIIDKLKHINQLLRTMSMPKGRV

Binder | Kd [1] | Kd [2]
B1 | 265 nM | –
B2 | – | 3300 nM
